Test results from paper PMC3327698, “Binding Properties and Stability of the Ras-Association Domain of Rap1-GTP Interacting Adapter Molecule (RIAM)” (PLoS ONE, 2012).

T1: GST-RIAM150-502 (RA and PH domains) (human, UniProt Q7Z5R6 150-502)
T1 construct: Modified pGEX-4T3 vector with a TEV protease site; also called RA-PH domain pair; source: E. coli BL21 GOLD, purified (Glutathione Sepharose, SEC); not shown: GST, N-terminal, kept
T1 sequence (looked up): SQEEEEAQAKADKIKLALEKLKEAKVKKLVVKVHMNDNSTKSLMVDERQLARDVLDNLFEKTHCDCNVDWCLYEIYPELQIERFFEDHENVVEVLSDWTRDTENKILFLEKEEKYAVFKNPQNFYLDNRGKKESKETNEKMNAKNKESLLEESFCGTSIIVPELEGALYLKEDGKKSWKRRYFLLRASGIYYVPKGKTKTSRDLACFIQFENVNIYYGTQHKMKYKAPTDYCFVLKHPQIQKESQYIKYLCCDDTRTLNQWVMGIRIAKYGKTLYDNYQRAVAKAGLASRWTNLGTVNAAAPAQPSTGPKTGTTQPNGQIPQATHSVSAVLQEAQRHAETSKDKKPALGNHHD

B1: GST-RIAM150-261 (RA domain) (domain or fragment, human, UniProt Q7Z5R6 150-261, looked up)
chain: SQEEEEAQAKADKIKLALEKLKEAKVKKLVVKVHMNDNSTKSLMVDERQLARDVLDNLFEKTHCDCNVDWCLYEIYPELQIERFFEDHENVVEVLSDWTRDTENKILFLEKE
notes: Modified pGEX-4T3 vector with a TEV protease site between GST and RIAM; also called RIAM RA domain construct; GST-RIAM-RA; source: E. coli BL21 GOLD, purified (Glutathione Sepharose, SEC); not shown: GST, N-terminal, kept
B2: Rap1B (amino acids 1-167) (domain or fragment, UniProt P61224 1-167, looked up)
chain: MREYKLVVLGSGGVGKSALTVQFVQGIFVEKYDPTIEDSYRKQVEVDAQQCMLEILDTAGTEQFTAMRDLYMKNGQGFALVYSITAQSTFNDLQDLREQILRVKDTDDVPMILVGNKCDLEDERVVGKEQGQNLARQWNNCAFLESSAKSKINVNEIFYDLVRQINR
notes: small GTPase Rap1B, amino acids 1-167 (C-terminus excluded); loaded with Gpp(NH)p or GDP before the assay; One molecule for both nucleotide states; Construct pGEX-4T3/Rap1B came from A. Wittinghofer; also called Rap1B-Gpp(NH)p; Rap1B-GTP; source: E. coli BL21 GOLD, purified (Glutathione Sepharose, nucleotide exchange, SEC)

Columns and labels:
[1] = target: B2; test: pull-down; quantitative: GST-RIAM on Glutathione Sepharose 4B; Rap1B-Gpp(NH)p at 0.05, 0.1, 0.3, 0.5, 0.7 and 1.0 µM; Buffer A; anti-Rap1 Western blot, densitometry, nonlinear regression (GraphPad Prism); settings: both partners purified
[2] = target: T1, GST-RIAM150-502 (RA and PH domains); test: as above; settings: both partners purified

Binder: B1
- Kd [1]: 330 ± 90 nM

Binder: B2
- Kd [2]: 700 ± 400 nM
